Reference: US20260337282 (published 2026)
Where two headings read alike, the source gives them in different places.

T1: mouse CCR8 (mouse)
T1 chain: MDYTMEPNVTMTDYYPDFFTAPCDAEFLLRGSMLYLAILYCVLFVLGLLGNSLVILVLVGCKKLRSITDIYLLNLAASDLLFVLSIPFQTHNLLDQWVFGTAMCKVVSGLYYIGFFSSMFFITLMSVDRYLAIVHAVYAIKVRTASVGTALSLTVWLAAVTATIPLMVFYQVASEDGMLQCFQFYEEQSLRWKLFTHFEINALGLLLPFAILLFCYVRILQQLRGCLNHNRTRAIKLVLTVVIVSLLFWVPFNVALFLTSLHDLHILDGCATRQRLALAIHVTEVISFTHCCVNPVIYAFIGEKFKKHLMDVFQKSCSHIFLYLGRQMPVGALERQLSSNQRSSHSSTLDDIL

T2: human CX3CR1 (human)
T2 chain: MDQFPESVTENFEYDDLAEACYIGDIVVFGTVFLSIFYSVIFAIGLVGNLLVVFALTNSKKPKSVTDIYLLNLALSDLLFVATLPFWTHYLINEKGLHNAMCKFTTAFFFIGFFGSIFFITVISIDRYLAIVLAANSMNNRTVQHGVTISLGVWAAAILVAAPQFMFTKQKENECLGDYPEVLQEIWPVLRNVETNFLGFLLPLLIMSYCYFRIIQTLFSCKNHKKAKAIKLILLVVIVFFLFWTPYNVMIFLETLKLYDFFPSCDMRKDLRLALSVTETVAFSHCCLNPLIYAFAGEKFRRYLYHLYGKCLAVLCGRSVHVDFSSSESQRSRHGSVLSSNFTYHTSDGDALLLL

T3: human CCR2 (human)
T3 chain: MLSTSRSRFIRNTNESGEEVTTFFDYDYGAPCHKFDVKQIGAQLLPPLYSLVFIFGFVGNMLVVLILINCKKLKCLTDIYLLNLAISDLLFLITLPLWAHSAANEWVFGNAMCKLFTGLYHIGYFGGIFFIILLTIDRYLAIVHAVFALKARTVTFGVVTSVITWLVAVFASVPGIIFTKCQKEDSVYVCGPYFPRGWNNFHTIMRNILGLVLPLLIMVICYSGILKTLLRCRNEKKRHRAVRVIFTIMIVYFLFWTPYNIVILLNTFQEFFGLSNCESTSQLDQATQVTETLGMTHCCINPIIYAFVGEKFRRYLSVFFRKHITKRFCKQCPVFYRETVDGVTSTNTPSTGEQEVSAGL

T4: cynomolgus CCR8 (cynomolgus)
T4 chain: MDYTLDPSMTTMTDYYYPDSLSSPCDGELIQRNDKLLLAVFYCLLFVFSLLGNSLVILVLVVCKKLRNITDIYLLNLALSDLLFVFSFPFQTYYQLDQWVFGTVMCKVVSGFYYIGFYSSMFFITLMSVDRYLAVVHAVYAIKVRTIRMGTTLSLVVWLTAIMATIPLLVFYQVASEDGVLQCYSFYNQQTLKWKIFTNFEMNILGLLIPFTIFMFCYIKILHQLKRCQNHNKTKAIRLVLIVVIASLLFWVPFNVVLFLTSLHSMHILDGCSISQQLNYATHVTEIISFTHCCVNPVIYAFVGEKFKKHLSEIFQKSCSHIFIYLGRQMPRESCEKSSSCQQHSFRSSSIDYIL

T5: human CCR4 (human)
T5 chain: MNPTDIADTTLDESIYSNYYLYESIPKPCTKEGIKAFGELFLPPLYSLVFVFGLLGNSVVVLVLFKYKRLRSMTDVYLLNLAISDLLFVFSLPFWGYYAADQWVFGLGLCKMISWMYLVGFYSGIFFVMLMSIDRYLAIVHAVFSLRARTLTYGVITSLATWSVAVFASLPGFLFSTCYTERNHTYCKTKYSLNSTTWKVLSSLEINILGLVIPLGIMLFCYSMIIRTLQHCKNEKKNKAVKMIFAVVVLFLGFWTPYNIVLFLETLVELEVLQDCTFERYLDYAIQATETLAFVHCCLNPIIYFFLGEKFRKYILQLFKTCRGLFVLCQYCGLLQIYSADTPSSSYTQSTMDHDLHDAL


How the values were obtained:
Experiment in all cases: FACS
[1] = target: T1, mouse CCR8
[2] = target: T1, mouse CCR8
[3] = target: human CCR8 (human)
human CCR8 (human), sequence (chain, as listed by the source): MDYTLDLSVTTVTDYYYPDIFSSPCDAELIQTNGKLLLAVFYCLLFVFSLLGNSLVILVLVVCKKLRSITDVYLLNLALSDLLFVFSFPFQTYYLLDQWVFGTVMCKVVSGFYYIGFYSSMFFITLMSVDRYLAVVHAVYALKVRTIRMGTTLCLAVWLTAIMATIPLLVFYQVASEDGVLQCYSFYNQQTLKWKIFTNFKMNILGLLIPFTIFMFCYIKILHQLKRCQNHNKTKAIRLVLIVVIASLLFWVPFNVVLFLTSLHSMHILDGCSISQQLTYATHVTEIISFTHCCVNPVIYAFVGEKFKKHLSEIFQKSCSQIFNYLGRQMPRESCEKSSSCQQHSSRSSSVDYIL

[4] = target: human CCR5 (human)
human CCR5 (human), sequence (O14692 whole entry): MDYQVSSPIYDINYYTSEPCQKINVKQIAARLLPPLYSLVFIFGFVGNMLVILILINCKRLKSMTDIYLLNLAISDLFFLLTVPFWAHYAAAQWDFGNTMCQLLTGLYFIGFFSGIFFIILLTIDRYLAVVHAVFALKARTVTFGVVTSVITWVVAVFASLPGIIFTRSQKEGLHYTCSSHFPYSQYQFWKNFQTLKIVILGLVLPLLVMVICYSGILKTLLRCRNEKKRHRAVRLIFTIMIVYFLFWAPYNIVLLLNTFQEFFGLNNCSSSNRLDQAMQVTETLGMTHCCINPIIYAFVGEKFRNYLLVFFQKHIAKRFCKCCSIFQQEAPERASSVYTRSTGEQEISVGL

[5] = target: T2, human CX3CR1
[6] = target: human CCR8 (human); remark: listed apart in the source
[7] = target: T3, human CCR2
[8] = target: human CCR8 (human); remark: listed apart in the source
[9] = target: T4, cynomolgus CCR8
[10] = target: human CCR8 (human); remark: listed apart in the source
[11] = target: T1, mouse CCR8
[12] = target: T5, human CCR4
[13] = target: T1, mouse CCR8
[14] = target: human CCR8 (human); remark: listed apart in the source
[15] = target: T4, cynomolgus CCR8

| Binder | binding result [1] | EC50 [2] | EC50 [3] | binding result [4] | binding result [5] | binding result [6] | binding result [7] | EC50 [8] | EC50 [9] | EC50 [10] | EC50 [11] | binding result [12] | EC50 [13] | EC50 [14] | binding result [15] |
| --- | --- | --- | --- | --- | --- | --- | --- | --- | --- | --- | --- | --- | --- | --- | --- |
| 10A11 analog (antibody, V domains shown) VH: EVQLVESGGALVKPGGSLRLSCAASGFTFSTYALYWVRQAPGKGLEWVGRIRSKSNNYATYYADSVKDRFTISRDDSKNTLYLQMNSLKTEDTAVYYCTRARFYYSDYGYAMDYWGQGTLVTVSS VL: DIVMTQSPDSLAVSLGERATINCRSSKSLLHSNRNTYLYWYQQKPGQPPKLLIYRMSQLASGVPDRFSGSGSGTDFTLTISSLQAEDVAVYYCMQHLEYPLTFGQGTKLEIKR | no binding | > 10 µg/mL | 0.058 µg/mL |  |  |  |  |  |  |  |  |  |  |  |  |
| Mogamulizumab analog-SI (antibody, V domains shown) VH: EVQLVESGGDLVQPGRSLRLSCAASGFIFSNYGMSWVRQAPGKGLEWVATISSASTYSYYPDSVKGRFTISRDNAKNSLYLQMNSLRVEDTALYYCGRHSDGNFAFGYWGQGTLVTVSS VL: DVLMTQSPLSLPVTPGEPASISCRSSRNIVHINGDTYLEWYLQKPGQSPQLLIYKVSNRFSGVPDRFSGSGSGTDFTLKISRVEAEDVGVYYCFQGSLLPWTFGQGTKVEIK |  |  |  | no binding | no binding | no binding | no binding |  |  |  |  |  |  |  |  |
| 11B12 (antibody, V domains shown) VH: QVQLVESGGGVVQPGRSLRLSCAASGFSFSSYVMHWVRQAPGKGLEWVAVISYDGSDKYYADSVKGRFTISRDNSKNTLFLQMNSLRPEDTAVYYCARGRGYRYGQSYYYGMDVWGQGTTVTVSS VL: DIVMTQTPLSLSVTPGQPASISCKSSQSLLYSDGKTYLYWYLQKPGQPPQILIFEVSNRFSGVPDRFSGSGSGTDFTLKISRVEAEDVGVYYCMQSIKLPLTFGGGTKVEIK |  | 0.177 µg/mL | 0.194 µg/mL | no binding | no binding |  | no binding | 0.194 µg/mL | 0.103 µg/mL | 0.21 µg/mL | 0.177 µg/mL | no binding |  |  |  |
| 11F5 (antibody, V domains shown) VH: EVQLVESGGGVVQPGRSLRLSCAASGFTFSSYVVHWVRQAPGKGLEWVAVISYDGDNKFYADSVKGRFTISRDNSKNTLYLQMNSLRTEDTAVYYCARGRNYYYYYGLDVWGQGTTVTVSS VL: DIVMTQTPLSLSVTPGQPASISCKSSQSLLYSDGKTYLYWYLQKAGQPPQLLIYEVSNRFSGVPDRFSGSGSGTDFTLKISRVEAEDVGVFYCMQSLKVPPTFGQGTKVDIK |  | 0.4 µg/mL | 0.287 µg/mL | no binding | no binding |  | no binding | 0.287 µg/mL | > 2 µg/mL | 0.285 µg/mL | 0.4 µg/mL | no binding | 0.168 µg/mL | 0.207 µg/mL |  |
| 7B16 analog (antibody, V domains shown) VH: EVQLVESGGGLVQPGGSLKLSCAASGFTFNTYAMNWVRQASGKGLEWVGRIRSKSNNYATYYADSVKDRFTISRDDSKNTAYLQMNSLKTEDTAVYYCVRGLLRYRFFDVWGQGTTVTVSS VL: DIVMTQSPLSLPVTPGEPASISCRSSKSLLHSNGNTYLYWFLQKPGQSPQLLIYRMSNLASGVPDRFSGSGSGTDFTLKISRVEAEDVGVYYCMQHLEYPFTFGGGTKVEIK | no binding | > 10 µg/mL | 0.039 µg/mL |  |  |  |  |  |  |  |  |  |  |  | no binding |

Continued, values first:

| binding result [1] | EC50 [2] | EC50 [3] | binding result [4] | binding result [5] | binding result [6] | binding result [7] | EC50 [8] | EC50 [9] | EC50 [10] | EC50 [11] | binding result [12] | EC50 [13] | EC50 [14] | binding result [15] | Binder |
| --- | --- | --- | --- | --- | --- | --- | --- | --- | --- | --- | --- | --- | --- | --- | --- |
|  | 0.127 µg/mL | 0.104 µg/mL | no binding | no binding |  | no binding | 0.104 µg/mL | 0.71 µg/mL | 0.0814 µg/mL | 0.127 µg/mL | no binding |  |  |  | 11F8 (antibody, V domains shown) VH: QVQLVESGGGVVQPGRSLRLSCAASGFTFSTYVMHWVRQAPGKGLEWVAVISYDGNNKYYADSVKGRFIISRDNSKNTLFLQMNSLRGEDTAVYYCARGRSYVNYYGLDVWGQGTTVTVSS VL: DIVMTQTPLSLSVTPGQPASISCKSSQSLLYSDGKTYLYWYLQKPGQPPHLLIYEVSNRFSGVPKRFSGSGSGTDFTLKISRVEAEDVGVYYCMQSVKIPLTFGGGTKVEIK |
|  |  |  |  | no binding | no binding | no binding |  |  |  |  | no binding |  |  |  | Leronlimab analog (antibody, V domains shown) VH: EVQLVESGGGLVKPGGSLRLSCAASGYTFSNYWIGWVRQAPGKGLEWIGDIYPGGNYIRNNEKFKDKTTLSADTSKNTAYLQMNSLKTEDTAVYYCGSSFGSNYVFAWFTYWGQGTLVTVSS VL: DIVMTQSPLSLPVTPGEPASISCRSSQRLLSSYGHTYLHWYLQKPGQSPQLLIYEVSNRFSGVPDRFSGSGSGTDFTLKISRVEAEDVGVYYCSQSTHVPLTFGQGTKVEIK |
